# Results published in patent EP4772193A1 (Teijin Pharma Limited, dated 2026).
# T1: recombinant human soluble gpNMB (recombinant human gpNMB-FLAG-His) (human, UniProt Q14956 23-498)
# T1 sequence: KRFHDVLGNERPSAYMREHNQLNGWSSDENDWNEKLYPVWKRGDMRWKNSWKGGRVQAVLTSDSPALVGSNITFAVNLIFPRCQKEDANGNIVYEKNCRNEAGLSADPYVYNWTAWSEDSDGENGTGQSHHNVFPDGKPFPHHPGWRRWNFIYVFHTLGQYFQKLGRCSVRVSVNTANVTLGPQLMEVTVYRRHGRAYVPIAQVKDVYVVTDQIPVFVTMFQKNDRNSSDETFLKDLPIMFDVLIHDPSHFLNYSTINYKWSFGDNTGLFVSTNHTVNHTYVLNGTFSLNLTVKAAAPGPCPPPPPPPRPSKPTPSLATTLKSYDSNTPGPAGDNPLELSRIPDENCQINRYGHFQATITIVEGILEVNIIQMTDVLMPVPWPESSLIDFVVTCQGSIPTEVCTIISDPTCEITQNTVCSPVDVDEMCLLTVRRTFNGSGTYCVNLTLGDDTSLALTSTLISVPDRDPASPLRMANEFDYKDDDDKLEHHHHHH
# T2: recombinant mouse soluble gpNMB (recombinant mouse gpNMB-FLAG-His) (mouse, UniProt Q99P91 23-502)
# T2 sequence: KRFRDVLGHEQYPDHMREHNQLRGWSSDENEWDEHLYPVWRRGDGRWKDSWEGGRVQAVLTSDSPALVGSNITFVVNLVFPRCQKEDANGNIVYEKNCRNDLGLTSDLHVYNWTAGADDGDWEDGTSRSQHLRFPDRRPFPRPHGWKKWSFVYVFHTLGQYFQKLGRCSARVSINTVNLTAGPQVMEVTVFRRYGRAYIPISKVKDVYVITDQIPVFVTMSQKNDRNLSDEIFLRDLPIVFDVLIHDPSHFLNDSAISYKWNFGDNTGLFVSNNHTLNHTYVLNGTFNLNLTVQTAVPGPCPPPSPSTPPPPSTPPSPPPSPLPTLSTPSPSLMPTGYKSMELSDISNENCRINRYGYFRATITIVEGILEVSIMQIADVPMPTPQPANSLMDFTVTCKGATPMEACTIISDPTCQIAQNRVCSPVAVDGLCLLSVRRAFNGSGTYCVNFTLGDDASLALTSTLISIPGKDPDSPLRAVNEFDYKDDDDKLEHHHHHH
# B1: GPN15-3 (antibody, V domains shown)
# VH: QVTLKESGPGILQPSQTLSLTCSFSGFSLTTSGMGVGWIRQPSGKGLEWLADMWWDDDKNYNPSLKSRLTISKDNSKKQVFLKIASVDTADTATYYCARRVYSSWFAYWGQGTLVTVSA
# VL: DIVMTQSQKFMSTSVGDRVSVTCKASQNVGANVAWYQQKPGQSPKTLIYSASYRYGGVPDRFTGSGSGTDFTFTITNVQSEDLAEYFCQQYNNYPLTFGAGTKLDLK
# notes: monoclonal with mouse IgG constant regions
# B2: GPN09-1 (antibody, V domains shown)
# VH: QVQLKASGPGLVQPSQTLSLTCTVSGLSLTSININWIRQPPGKGLEWMGVIWSDGDTDFNSAVKSRLSISRDTSKSQVFLNMNSLQTEDTAMYFCARGIRDWGQGVMVTVSS
# VL: DIVMTQTPLSLSVAIGQSASISCKSSQSLKYSDGKTYLNWVFQSPGQSPKRLIYQVSKLDSGVPDRFSGTGSETDFTLKISRVEAEDLGVYYCCQGSYSPHTFGSGTKLEIK
# notes: as for B1
# B3: GPN18-1 (antibody, V domains shown)
# VH: QVTLKESGPGILQPSQTLSLTCSFSGFSLSTSVMGVGWIRQPSGKGLEWLADIWWDDDKDYNPSLKSRLTISKDTSKNQVFLKIASVDTADTATYYCARAYYSNYEYYGMDYWGQGTSVTVSS
# VL: DVLMTQTPLSLPVSLGDQASISCRSSQSIVHSNGNTYLEWYLQKPGQSPKLLIYKVSNRFSGVPDRFSGSGSGTDFTLKISRVEAEDLGVYYCFQGSHVPFTFGSGTKLEIK
# notes: as for B1
# B4: GPN18-2 (antibody, V domains shown)
# VH: QVTLKESGPGILQPSQTLSLTCSFSGFSLSTSVMGVGWIRQPSGKGLEWLADIWWDDDKDYNPSLKSRLTISKDTSKNQVFLKIASVDTADTATYYCARTYYSNYEYYGMDYWGQGTSVTVSS
# VL: DVLMTQTPLSLPVSLGDQASISCRSSQTIILSNGNTYLEWYLQKPGQSPKLLIYKVSNRFSGVPDRFSGSGSGTDFTLKISRVEAEDLGVYYCFQGSHVPFTFGSGTKLEIK
# notes: as for B1
# B5: GPN18-7 (antibody, V domains shown)
# VH: QVTLKESGPGILQPSQTLSLTCSFSGFSLSTSVMGVGWIRQPSGKGLEWLADIWWDDDKDYNPSLKSRLTISKDTSKNQVFLKIASVDTADTATYYCARAYYSNFEYYGMDYWGQGTSVTVSS
# VL: DVLMTQIPLSLPVSLGDQASISCRSSQTIVHSNGNTYLEWYLQKPGQSPKLLIYKVSNRFSGVPDRFSGSGSGTDFTLKISRVEAEDLGVYYCFQGSHVPFTFGSGTKLEIK
# notes: as for B1
# B6: GPN15-2 (antibody, V domains shown)
# VH: QVQLQQPGAELVKPGASVKMSCKASGYTFTNHNMHWVKQTPGQGLEWIGAFYTGNGDTSYNQKFKGKATLTADKSSSTAYIQLSSLTSEDSAVYYCARERYDGYYIAMDYWGQGTSVTVSS
# VL: QIVLTQSPAFMSVSPGEKVTMTCSASSSVYYMFWYQQKPRSSPKPWIYLTSKLASGVPARFSGSGSGTSYSVTISSMEAEDAATYYCQQWSSNPQWTFGGGTKLEIK
# notes: as for B1
# B7: hGPN18-2_H2L3 VL E39A (antibody, V domains shown)
# VH: QVQLVQSGPGLVQPTQTLTLTCSFSGFSLSTSVMGVGWIRQPSGKGLEWLADIWWDDDKDYNPSLKSRLTISKDTSKNQVVLTMTNMDTVDTATYYCARTYYSNYEYYGMDYWGQGTLVTVSS
# VL: DIVMTQSPDSLAVSLGERATINCRSSQTIILSNGNTYLAWYQQKPGQPPKLLIYKVSNRFSGVPDRFSGSGSGTDFTLTISSLQAEDVAVYYCFQGSHVPFTFGSGTKLEIKR
# B8: hGPN18-2_H2L3 VL F60A (antibody, V domains shown)
# VH: QVQLVQSGPGLVQPTQTLTLTCSFSGFSLSTSVMGVGWIRQPSGKGLEWLADIWWDDDKDYNPSLKSRLTISKDTSKNQVVLTMTNMDTVDTATYYCARTYYSNYEYYGMDYWGQGTLVTVSS
# VL: DIVMTQSPDSLAVSLGERATINCRSSQTIILSNGNTYLEWYQQKPGQPPKLLIYKVSNRASGVPDRFSGSGSGTDFTLTISSLQAEDVAVYYCFQGSHVPFTFGSGTKLEIKR
# B9: 1-5E (antibody, V domains shown)
# VH: EVQLQQSGAELVRSGASVKLSCTASGFNIKDYYMHWVKQRPDQGLEWIGWIDPENGDTEYAPKFQGKATMTADTSPNTAYLQLSSLTSEDTAVYYCNGVYYGSRGFFDYWGQGTTLTVSS
# VL: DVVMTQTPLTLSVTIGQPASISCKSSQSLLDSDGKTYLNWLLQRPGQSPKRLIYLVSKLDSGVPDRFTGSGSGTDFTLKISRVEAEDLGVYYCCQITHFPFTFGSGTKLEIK
# notes: obtained by immunization with a vaccine peptide of a previous report; also called vaccine peptide antibody
# B10: GPN11-10 (antibody, V domains shown)
# VH: QVNLLQSGAALVKPGASVRLSCKTSGYTFTDCYIHWVRQSHGKSLEWIGFINPNSGYTFYNEKFKSKATLTVAKSTNTAYMELSRLTSEDSATYFCTRGDYYTSNLYDWFAYWGQGTLVTVSS
# VL: DTVMTQSPASMSTSVGERVTVNCKASQTVGTVVAWFQQKPGQSPKRLIYWATNRHTGVPDRFTGSGFGRDFSLTISNVEAEDLAVYYCLQYGSVPPTFGGGTKLELK
# notes: as for B1
# B11: GPN05-1 (antibody, V domains shown)
# VH: QVQLQQSGAELVRPGTSVKVSCKASGYAFSNHLIEWVKQRPGQGLEWIGVINPGSGGTNYIEKFKGKATLTADKSSSTAYMQLSSLTSDDSAVYFCARGANWDVGFAYWGQGTLVTVSA
# VL: EIQMTQSPSSMSASLGDRITITCQATQDIVKNLNWYQQKPGKPPSFLIYYATELAEGVPSRFSGSGSGSDFSLTISNLESEDFADYYCLQFHEFPRTFGGGTKLEIK
# notes: as for B1
# B12: GPN06-1 (antibody, V domains shown)
# VH: QVQLQQPGAEIVRPGASVKLSCKASGYTFTDNWMGWVKQRPGQGLEWIGAIDPSDSFTNYNQNFKGKATLTVDTSSSTAYMQLSSLTSEDSAVYFCTRSGYYGSPKLGGDYWGQGTTLTVSS
# VL: QIVLTQSPAIMSASLGEEITLTCSASSSISYMHWYQQKSGTSPKLLIYSTSNLASGVPSRFSGSGSGTFYSLTISSVEAEDAADYYCHQWNSYPCTFGGGTKLEIK
# notes: as for B1
# B13: GPN18-6 (antibody, V domains shown)
# VH: EVQLQQSGPELVMPGSSVKISCKASGYTFTDYYMNWVRQSHGKSLEWIGDINPINGDITYNQKFKGKATLTVDKSSSTDYMELRGLTSEDSAVYYCAREAFFGYKGNYFDYWGQGTTLTVSS
# VL: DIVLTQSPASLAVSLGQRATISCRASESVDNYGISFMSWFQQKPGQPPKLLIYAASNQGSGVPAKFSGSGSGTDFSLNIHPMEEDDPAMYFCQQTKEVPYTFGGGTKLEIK
# notes: as for B1
# B14: GPN18-4 (antibody, V domains shown)
# VH: QVQLQQSGAELTKPGTSVKMSCKASGYTLSSYWMNWIKQRPGQGLEWIGTINPSNNYTAYNLKFKDKAMLTADKSSSTAYMQLSSLTSEDSAVYYCATWGYWGQGTTLTVSS
# VL: DIVMTQSHKFMSTSVGDRVSITCKASQDVSTAVAWHQQKPGQPPKLLIYSASYRYTGVPDRFTGSGSGTDFTFTISSVQTEDLAIYYCQHHYTTTWTFGGGTKLEIR
# notes: as for B1
# B15: GPN18-5 (antibody, V domains shown)
# VH: QVQLQQSGAELAKPGTSVKMSCKASGYTFTTYWMNWVKQRPGQDLEWIGAINPSNDYTEYNQKFKDKAILTADKSSNTAYMQLSSLTSEDSAVYYCGRSYSPDYWGQGTTLTVSS
# VL: DIVMTQSQKFMSTSVGDRVSVTCKASQNVDNHVAWHQQKPGQSPKALIYSASYRYSGVPDRFTGSGSGTDFTLTIRDVQSEDLADYFCQQYKSYPFTFGSGTELEIK
# notes: as for B1
# Key:
# [1] = molecular target: T1, recombinant human soluble gpNMB …; assay: SPR, antibody 100 nM over captured gpNMB-FLAG-His, 25C
# [2] = molecular target: T2, recombinant mouse soluble gpNMB …; assay: as above
# [3] = molecular target: T1, recombinant human soluble gpNMB …; assay: antigen ELISA, vs hGPN18-2_H2L3
# [4] = molecular target: T1, recombinant human soluble gpNMB …; assay: antigen ELISA
Binder,Kd [1],koff [1],kon [1],Kd [2],koff [2],kon [2],Relative binding activity [3],EC50 [4]
B1,2.9 nM,0.00037 s⁻¹,130000 M⁻¹ s⁻¹,2.9 nM,0.00036 s⁻¹,130000 M⁻¹ s⁻¹,,
B2,,,,2.6 nM,0.00042 s⁻¹,160000 M⁻¹ s⁻¹,,
B3,14 nM,0.00054 s⁻¹,38000 M⁻¹ s⁻¹,24 nM,0.00091 s⁻¹,38000 M⁻¹ s⁻¹,,
B4,2.2 nM,6.8e-05 s⁻¹,31000 M⁻¹ s⁻¹,3.3 nM,7.9e-05 s⁻¹,24000 M⁻¹ s⁻¹,,
B5,23 nM,0.00059 s⁻¹,26000 M⁻¹ s⁻¹,49 nM,0.00099 s⁻¹,20000 M⁻¹ s⁻¹,,
B6,0.0035 nM,6e-07 s⁻¹,170000 M⁻¹ s⁻¹,2 nM,0.00028 s⁻¹,140000 M⁻¹ s⁻¹,,
B7,,,,,,,0.1,84.8 nM
B8,,,,,,,1.12,2.28 nM
B9,,,,9.1 nM,0.0061 s⁻¹,670000 M⁻¹ s⁻¹,,
B10,13 nM,0.001 s⁻¹,81000 M⁻¹ s⁻¹,4.9 nM,0.00037 s⁻¹,75000 M⁻¹ s⁻¹,,
B11,3.3 nM,0.00016 s⁻¹,48000 M⁻¹ s⁻¹,20 nM,0.0013 s⁻¹,61000 M⁻¹ s⁻¹,,
B12,1.4 nM,0.00049 s⁻¹,340000 M⁻¹ s⁻¹,12 nM,0.0018 s⁻¹,150000 M⁻¹ s⁻¹,,
B13,24 nM,0.00065 s⁻¹,27000 M⁻¹ s⁻¹,31 nM,0.00098 s⁻¹,32000 M⁻¹ s⁻¹,,
B14,0.32 nM,1.5e-05 s⁻¹,47000 M⁻¹ s⁻¹,3.8 nM,0.00012 s⁻¹,30000 M⁻¹ s⁻¹,,
B15,2 nM,0.0003 s⁻¹,150000 M⁻¹ s⁻¹,7.7 nM,0.0007 s⁻¹,91000 M⁻¹ s⁻¹,,
